Where no end group is shown, it is not given here.
What was measured:
[1] = tested on: adult zebrafish brain (telencephalic hemisphere); assay: Peptide translocation area in the telencephalon after CVMI (fluorescein IHC); details: 5(6)-carboxyfluorescein-labelled peptide, fluorescein IHC at 1 dpi, n = 3, mean ± s.e.m.
Description: (§1) Cerebroventricular microinjections (CVMI) were executed as described in [7, 8]. Fish were anesthetized using MESAB (0.01%) and an incision placed above the optic tectum with a fine needle (Becton Dickinson Biosciences). Through this hole a glass capillary is inserted and the liquid disperses evenly throughout the cerebroventricular fluid upon high pressure injection.
(§2) Fish were sacrificed 1 day post injection and heads fixed over night at 4°C in 2% PFA. Thereafter heads were transferred to 20% Sucrose-EDTA in […] phosphate buffer, pH 7.5. For cryosectioning embedding in Sucrose(20%)-Gelatine (7.5%) on dry ice was done and heads stored at -80°C. 12 μm cryosections were cut using a cryostat microtome and stored at -20°C.
(§3) Stainings were performed as previously described in [36, 43]. Yet after the first washing step a 6 min citrate buffer treatment at 85°C was done. Primary antibodies were sheep anti-fluorescein AP (1:4000, Roche), mouse anti-PCNA (1:500, Dako Cyto) and rabbit anti L-Plastin (Lcp1, 1:7500, a kind gift from Michael Redd, University of Utah, Salt Lake City, UT, USA), they were diluted in PBS. They were incubated at 4°C overnight and secondary antibodies for 30 min at room temperature. Secondary antibodies were Alexa anti-rabbit and anti-mouse 488, 555 (1:500, Molecular probes). FastRed stainings were carried out using Fast Red TR/Naphtol AS-MX tablets (Sigma), according to manufacturer's instructions. Lastly sections were washed using PBSTx and mounted. All immunohistochemical stainings were done on at least five individuals.
(§4) Images were acquired using an inverted Zeiss AxioImager Z1. Only sections between the caudal end of the olfactory bulb and anterior commissure were counted. The quantification of the average translocation range was done using the AxioVision free hand surface area measurement tool. The area showing anti-fluorescein staining in the left hemisphere was measured against the total this telencephalic hemisphere, based on color thresholds against control images. The statistical evaluation was performed using GraphPad Prism (Version 6.02) for one-way ANOVA followed by a Tukey’s post-hoc test and for Student’s T-Test. Error bars shown are the s.e.m. and asterisks indicate significance according to: *: p0.05, **: p0.01, ***: p0.001. p>0.05 is considered not significant.

[2] = tested on: adult zebrafish brain (telencephalon); details: for number of TUNEL-positive (apoptotic) cells: CVMI 200 μM, 1 dpi, per telencephalic hemisphere per section, n = 3
Description: as §1, §2
TUNEL stainings of sections were carried out using the ApoTag Red In Situ apoptosis Detection Kit (Chemicon International). Stainings were performed according to manufacturer’s instructions and positive and negative controls were included.
as §4

[3] = tested on: adult zebrafish brain (telencephalic hemispheres); assay: Relative fluorescence levels in the telencephalic hemispheres after CVMI (surface plots); details: CVMI 100 μM; for relative fluorescence levels in the telencephalic hemispheres (level of peptide translocated to deep tissues): Fast-Red staining of cryosections, compared to control PolyD
Description: as §1, §2, §3
(§5) Images were acquired using an inverted Zeiss AxioImager Z1. Only sections between the caudal end of the olfactory bulb and anterior commissure were counted. The quantification of the average translocation range was done using the AxioVision free hand surface area measurement tool. The area showing anti-fluorescein staining in the left hemisphere was measured against the total this telencephalic hemisphere, based on color thresholds against control images. […]

[4] = tested on: adult zebrafish brain (ventricular progenitor cells); details: CVMI 200 μM, PCNA IHC, n = 3, mean ± s.e.m.
Description: as §1, §2
Stainings were performed as previously described in [36, 43]. Yet after the first washing step a 6 min citrate buffer treatment at 85°C was done. […]
as §5

[5] = tested on: adult zebrafish brain (telencephalon); assay: L-Plastin immunohistochemistry for immune response (leukocytes/microglia) after peptide CVMI; details: for number of L-Plastin-positive cells per hemisphere per section: dose not printed in the block (heading: high doses), PBS-injected control 35 ±6, n = 3, mean ± s.e.m.
Description: as §1, §2, §3, §4

[6] = injection concentration 100 μM, stained area vs total hemisphere
[7] = CVMI at 100 μM, 150 μM and 200 μM (all doses tested), n = 4

| Substance | average area of peptide translocation in one telencephalic hemisphere [1, 6] | average area of peptide translocation in one telencephalic hemisphere ([1]; injection concentration 200 μM) [%] | number of TUNEL-positive (apoptotic) cells [2] | cell death response (TUNEL-positive cells) compared to PolyD control [2, 7] | maximum concentration usable without any cell death response ([2]; CVMI, doses tested 100, 150, 200 μM, TUNEL) | relative fluorescence levels in the telencephalic hemispheres (level of peptide translocated to deep tissues) [3] | effectiveness of penetration relative to Trans (relative fluorescence) ([3]; PolyR versus Trans) [fold] | ventricularly proliferating progenitor cells (PCNA+ cells per telencephalic hemisphere section) [4] | immune response (L-Plastin-positive cells) compared to PolyD control [5, 7] | number of L-Plastin-positive cells per hemisphere per section ([5]; CVMI) | maximum concentration usable without activating the immune system ([5]; CVMI, doses tested 100, 150, 200 μM, L-Plastin IHC) |
| --- | --- | --- | --- | --- | --- | --- | --- | --- | --- | --- | --- |
| RPARPAR ({5(6)‑carboxyfluorescein}-RPARPAR) [CendRP] | did not show any penetration | – | – | – | – | – | – | – | – | – | – |
| RKKRRQRRR [Tat] | 27 ±13% | 63 ± 11 | – | – | – | – | – | – | – | – | – |
| RRRRRRRRR [PolyR, Poly-Arginine] | 70 ± 4% | 70 ± 5 | unchanged levels of TUNEL-positive cells | did not elicit any cell death response | not toxic at such concentrations | significantly elevated levels of penetration | 3 | not altered | did not elicit any immune response | do not alter the number of leukocytes/microglia | not causing an immune reaction at tested concentrations |
| DDDDDDDDD ({5(6)‑carboxyfluorescein}-DDDDDDDDD) [PolyD, Poly-Aspartic Acid] | did not show any penetration | – | did not result in any increase in the number of apoptotic cells | – | – | no translocation | – | – | – | do not alter the number of leukocytes/microglia | – |
